Data taken from US20230287146A1 (LAMKAP BIO GAMMA, published 2023).

Tests used:
human CD28 [1] = target: T1, human CD28 (human, UniProt P10747 19-220); test: flow cytometry, bivalent mAb on Jurkat cells
T1 construct: whole, on cells; also called huCD28
Procedure: (§1) Cells were harvested, checked for viability, and counted. 200'000 cells were incubated for 15 minutes at 4° C. with increasing concentrations of the antibodies diluted in FACS buffer (PBS 2% BSA). Cells were washed twice with cold FACS buffer and re-incubated for further 15 minutes at 4° C. with a suitable anti-human IgG secondary antibody. Cells were washed twice with cold FACS buffer and resuspended in 150 μl FACS buffer with a compatible viability marker. Binding of antibodies to living cells was measured by flow cytometry using a Cytoflex Platform (Beckman Coulter). Data was analyzed with FlowJo™ v10 software (BD Life Sciences) and dose-response binding curves were drawn using GraphPad Prism 9 software. AD84 GPC3 arm of the GPC3×CD3 bispecific antibody and P44, P30, P111 GPC3 arms of the GPC3×CD28 bispecific antibodies of this invention were selected from this screening process based on their specificity and binding signal intensity to GPC3 positive cells.
The binding capacity of the anti-CD28 antibody arms of the invention, tested as bivalent mAbs, was assessed using Jurkat cells (Jurkat Clone E6-1, ATCC TIB 152) by flow cytometry. The flow cytometry methodology was the same as the one described above. AI3 and AI10 CD28 binding arms were selected from this screening process based on their specificity and binding signal intensity to CD28 positive cells.

human CD28 [2] = target: T1, human CD28; test: flow cytometry on Jurkat cells
Procedure: as §1
Examples of cells that can be used include GPC3 positive cell lines such as the gastric carcinoma cell line FU97 (JCRB1074), CD28 positive cell lines such as the leukemic Jurkat T cells as well as GPC3/CD28 double negative cell line, such as the leukemic TIB-153 cells. Cell staining and binding assessment was performed as described in Example 6. An irrelevant hIgG1 mAb served as negative isotype control and was used in all shown experiments for comparison. Binding data on FU97 cells (FIG. 2A) emphasizes the range of binding affinities for huGPC3 of the selected anti-GPC3 arms of the invention, P44 and P30. Both P44 and P30 arms are binding to membrane distal domains within GPC3. Binding on CD3 positive Jurkat cells highlight how these two CD28×GPC3 bispecific antibodies sharing the same anti-CD28 arm (e.g. AI3) bind similarly to CD28 positive cells (FIG. 2B).

T1 sequence (P10747 19-220): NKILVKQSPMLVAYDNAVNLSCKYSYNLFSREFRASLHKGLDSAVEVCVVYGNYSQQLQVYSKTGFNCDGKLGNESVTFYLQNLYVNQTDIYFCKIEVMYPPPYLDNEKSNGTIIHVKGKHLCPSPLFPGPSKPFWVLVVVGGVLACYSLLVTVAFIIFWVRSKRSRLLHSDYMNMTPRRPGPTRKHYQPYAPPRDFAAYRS

| Binder | binding result (human CD28 [1]) | binding result (human CD28 [2]) |
| --- | --- | --- |
| AI10 anti-CD28 bivalent mAb (antibody, V domains shown) VH: not shown VL: DIVMTQTPLSLSVTPGQPASISCKSSGDLLEFAGKTYLYWYLQKPGQPPQLLIYEVSNRFSGVPDRFSGSGSGTDFTLKISRVEAEDVGVYYCMQAHGSKIGFTFGQGTKVEIK | binds | – |
| AI3P30/N (bispecific antibody, human IgG1, kappa, lambda, L234A L235A, also called GPC3×CD28 bispecific antibody) heavy: not shown light 1: not shown light 2: QSALTQPASVSGSPGQSITISCTGTSSDVPEDALVSWYQQHPGKAPKLMIYYDSTRPSGVSNRFSGSKSGNTASLTISGLQAEDEADYYCSSWDFGTGSKVFGGGTKLTVLGQPKAAPSVTLFPPSSEELQANKATLVCLISDFYPGAVTVAWKADSSPVKAGVETTTPSKQSNNKYAASSYLSLTPEQWKSHRSYSCQVTHEGSTVEKTVAPTECS | – | binds |

The remaining lines, values ahead:

| binding result (human CD28 [1]) | binding result (human CD28 [2]) | Binder |
| --- | --- | --- |
| – | binds | AI3P44/N (bispecific antibody, human IgG1, kappa, lambda, L234A L235A, also called GPC3×CD28 bispecific antibody; GPC3×CD28 κλ-body) heavy: not shown light 1: not shown light 2: NFMLTQPHSVSESPGKTVTISCTRSSGSISYDDVQWYQQRPGSSPTTVIYFNNLRPSGVPDRFSGSIDSSSNSASLTISGLKTEDEADYYCQSWDLRHRVFGGGTKLTVLGQPKAAPSVTLFPPSSEELQANKATLVCLISDFYPGAVTVAWKADSSPVKAGVETTTPSKQSNNKYAASSYLSLTPEQWKSHRSYSCQVTHEGSTVEKTVAPTECS |
| – | binds | AI10P44/N (bispecific antibody, human IgG1, kappa, lambda, L234A L235A, also called AI10-containing bispecific antibody; GPC3×CD28 bispecific antibody) heavy: not shown light 1: DIVMTQTPLSLSVTPGQPASISCKSSGDLLEFAGKTYLYWYLQKPGQPPQLLIYEVSNRFSGVPDRFSGSGSGTDFTLKISRVEAEDVGVYYCMQAHGSKIGFTFGQGTKVEIKRTVAAPSVFIFPPSDEQLKSGTASVVCLLNNFYPREAKVQWKVDNALQSGNSQESVTEQDSKDSTYSLSSTLTLSKADYEKHKVYACEVTHQGLSSPVTKSFNRGEC light 2: NFMLTQPHSVSESPGKTVTISCTRSSGSISYDDVQWYQQRPGSSPTTVIYFNNLRPSGVPDRFSGSIDSSSNSASLTISGLKTEDEADYYCQSWDLRHRVFGGGTKLTVLGQPKAAPSVTLFPPSSEELQANKATLVCLISDFYPGAVTVAWKADSSPVKAGVETTTPSKQSNNKYAASSYLSLTPEQWKSHRSYSCQVTHEGSTVEKTVAPTECS |
